Data published in US20200255503A1 (Regeneron, published 2020).

Experiments:
[1] = molecular target: T1, Fel d1 (B-A)-mmH (cat (Felis domesticus)); assay: SPR, mAb captured, Fel d1 (B-A)-mmH injected, 25 C;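 further: rate constants obtained by fitting sensorgrams to a one-to-one binding model, Kd computed as koff over kon, half-life derived from koff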
T1 construct: Expressed in CHO cells; also called rFel d1.mmH; rFel d1-mmH
Protocol: Antibody-antigen association was monitored for 3 to 5 minutes, and the dissociation of antigen from the captured monoclonal antibody (in running buffer alone at 25° C.) was monitored for 10 or 15 minutes. Kinetic association (kₐ) and dissociation (kₐ) rate constants were determined by processing and fitting the data to a 1:1 binding model using Scrubber 2.0 curve fitting software. Binding dissociation equilibrium constants (KD) and dissociative half-lives (t_{1/2}) were calculated from the kinetic rate constants as: KD=kd/kₐ and t_{1/2}=ln(2)/kₐ.

[2] = molecular target: T1, Fel d1 (B-A)-mmH; assay: SPR Biacore T200, mAb captured by anti-human Fc, antigen injected
Description: (§1) The binding kinetic parameters were obtained by globally fitting the double reference subtracted data to a 1:1 binding model with mass transport limitation using Biacore T200 Evaluation Software, version 1.0.

[3] = molecular target: rFel d1.mFc (dimeric) (cat (Felis domesticus)); assay: as above
Sequence of rFel d1.mFc (dimeric) (cat (Felis domesticus)) (chain, as listed by the source limits assumed): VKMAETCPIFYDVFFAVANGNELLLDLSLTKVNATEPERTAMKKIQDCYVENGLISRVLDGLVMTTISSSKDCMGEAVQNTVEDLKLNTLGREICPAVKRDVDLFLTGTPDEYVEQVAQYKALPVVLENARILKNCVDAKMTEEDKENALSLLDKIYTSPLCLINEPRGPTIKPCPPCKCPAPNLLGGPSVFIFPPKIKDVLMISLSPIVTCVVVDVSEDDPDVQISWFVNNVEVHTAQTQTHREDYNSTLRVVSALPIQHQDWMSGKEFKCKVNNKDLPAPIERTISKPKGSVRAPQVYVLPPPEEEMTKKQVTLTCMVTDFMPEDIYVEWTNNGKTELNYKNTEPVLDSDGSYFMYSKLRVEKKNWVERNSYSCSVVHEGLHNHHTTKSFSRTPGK
Description: as §1

T1 sequence (chain, as listed by the source limits assumed): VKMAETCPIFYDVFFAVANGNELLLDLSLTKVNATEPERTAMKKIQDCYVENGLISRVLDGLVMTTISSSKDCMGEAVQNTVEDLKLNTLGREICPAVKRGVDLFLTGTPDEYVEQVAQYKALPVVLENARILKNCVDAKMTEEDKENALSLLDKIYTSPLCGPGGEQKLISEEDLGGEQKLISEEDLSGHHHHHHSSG

B1: H4H2636B (antibody, human IgG4, V domains shown)
VH: EVQLVESGGGLVQPGGSLRLSCAASGFTFSSYAMSWVRQAPGKGLEWVSAISGRGYNADYADSVKGRFTISRDNSKNTLYLQMNSLRAEDTAVYYCAKLEYFDYWGQGTTVTVSS
VL: DIQLTQSPSTLSASVGDRVTITCRASQSISSWLAWYQQKPGKAPKLLIYKASSLESGVPSRFSGSGSGTDFTLTISSLRPEDFATYYCQQYNSYPLTFGGGTKVEIKR
notes: human IgG4 Fc (prefix H4H)
- Kd [1]: 0.924 nM
- koff [1]: 0.000228 s⁻¹
- kon [1]: 247000 M⁻¹ s⁻¹
- t1/2 [1]: 51 min

B2: H4H2636P (antibody, human IgG4, V domains shown)
VH: EVQLVESGGGLVQPGGSLRLSCAASGFTFSSYAMSWVRQAPGKGLEWVSAISGRGYNADYADSVKGRFTISRDNSKNTLYLQMNSLRAEDTAVYYCAKLEYFDYWGQGTLVTVSS
VL: DIQMTQSPSTLSASVGDRVTITCRASQSISSWLAWYQQKPGKAPKLLIYKASSLESGVPSRFSGSGSGTDFTLTISSLRPEDFATYYCQQYNSYPLTFGGGTKVEIK
notes: human IgG4 Fc (prefix H4H); also called REGN1909
- Kd [1]: 0.912 nM
- koff [1]: 0.000235 s⁻¹
- kon [1]: 257000 M⁻¹ s⁻¹
- t1/2 [1]: 49 min
- Kd [2]: 0.912 nM
- T1/2 [2]: 49 min
- koff [2]: 0.000235 s⁻¹
- kon [2]: 257000 M⁻¹ s⁻¹
- Kd [3]: 0.0978 nM
- T1/2 [3]: 254 min
- koff [3]: 4.55e-05 s⁻¹
- kon [3]: 466000 M⁻¹ s⁻¹

B3: H1M1230N (antibody, V domains shown)
VH: EVQLVESGGGLVQPGGSLRLSCTASGFIFSNFWMTWVRQAPGKGLEWVANIKQDGSETYCVDSVKGRFTISRDHAKNSLFLQMNSLRAEDTAVYYCARGAGTIYYYGMDVWGQGTTVIVSS
VL: DIQMTQSPSSVSASVGDRLTITCRASQDISSWLTWYQQKPGKAPNLLIYAASGLQSGVPSRFSGSGSGTDFTLTISNLQPEDFATYYCQQANSFPLTFGQGTRLEIK
notes: chimeric, human variable domains with mouse Fc (prefix H1M)
- Kd [1]: 1.31 nM
- koff [1]: 0.00051 s⁻¹
- kon [1]: 388000 M⁻¹ s⁻¹
- t1/2 [1]: 23 min

B4: H4H2594S (antibody, human IgG4, V domains shown)
VH: EVQLVESGGGLVKPGGSLRLSCAASGFTFSDYYMNWIRQAPGKGLEWVSYISSSGSSIYYADSVKGRFTISRDNAKNSLYLLMNSLRAEDTAVYYCARDGKYNSSPGDYWGQGTLVTVSS
VL: DIQMTQSPSSLSASVGDRVTIACRASQGISNYLAWFQQKPGKAPKSLIYAASSLQSGVPSKFSGSGSGTDFTLTISSLQPEDFATYYCQQYNSYPLTFGGGTKVEIKR
notes: human IgG4 Fc (prefix H4H)
- Kd [1]: 0.402 nM
- koff [1]: 0.000521 s⁻¹
- kon [1]: 1.3e+06 M⁻¹ s⁻¹
- t1/2 [1]: 22 min

B5: H4H2607B (antibody, human IgG4, V domains shown)
VH: EVQLVESGGGLVKPGGSLRLSCAASGFTFSDYYMNWIRQAPGKGLEWISYLSSSGSATYYADSVKGRFTISRDNAKNSLYLQMNSLRAEDTAVYYCARDGKYNTVAGDYWGQGTTVTVSS
VL: DIQLTQSPSSLSASVGDRVTITCRASQGIRNDLGWYQQKPGKAPKRLIYAASSLQSGVPSRFSGSGSGTEFTLTISSLQPEDFATYYCLQHNSYPYTFGQGTKVEIKR
notes: human IgG4 Fc (prefix H4H)
- Kd [1]: 0.364 nM
- koff [1]: 0.000563 s⁻¹
- kon [1]: 1.55e+06 M⁻¹ s⁻¹
- t1/2 [1]: 21 min

B6: H4H1616N (antibody, human IgG4, V domains shown)
VH: EVELLESGGGLVQPGGSLRLSCAASGFTFSSYAMSWVRQAPGKGLEWVSSISGRVGSTHFADSVKGRFTFSRDNSKNTLYLQLSSLRAEDTAVYYCARSRGAAYFDYWGQGTLVTVSS
VL: DIQMTQSPSSLSASVGDRVTITCQANQDISNFLNWYQQRPGKAPNLLIYAASNLETGVPSRFSGSGSGTDFTFTISSLQPEDIATYYCQHYDNFPFTFGPGTKVDIK
notes: human IgG4 Fc (prefix H4H)
- Kd [1]: 8.21 nM
- koff [1]: 0.00188 s⁻¹
- kon [1]: 229000 M⁻¹ s⁻¹
- t1/2 [1]: 6 min

B7: H1M1241N (antibody, V domains shown)
VH: EVQLVESGGGLVKPGGSLRLSCAASGFTFSSYSMNWVRQAPGKGLEWVSSISSRSSYIYYADSVKGRFTISRDNAKNSLYLQMNSLRAEDTAVYYCARDHIVVVPGASYYYYGMDVWGQGTTVTVSS
VL: DIQMTQSPSSLSASVGDRVTITCRASQGIRNDLGWYQQKPGKAPKRLISAASSLQSGVPSRFSGSGSGTEFTLTISSLQPEDFATYYCLQHNSYPLTFGGGTKVEIK
notes: as for B3
- Kd [1]: 0.331 nM
- koff [1]: 0.000112 s⁻¹
- kon [1]: 337000 M⁻¹ s⁻¹
- t1/2 [1]: 104 min

B8: H1M1234N (antibody, V domains shown)
VH: QVQLQQSGPGLVKSSQTLSLTCAISGDSVSSNSVAWNWIRQSPSRGLEWLGRTYYRSKWYNDYAVSVKSRININPDTSKNHFSLQLNSVTPEDTAVYFCARAWNWYYLDYWGQGTLVTVSS
VL: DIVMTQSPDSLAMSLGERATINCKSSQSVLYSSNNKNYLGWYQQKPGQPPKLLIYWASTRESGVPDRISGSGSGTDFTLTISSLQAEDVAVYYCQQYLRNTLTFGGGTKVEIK
notes: as for B3
- Kd [1]: 5.58 nM
- koff [1]: 0.00142 s⁻¹
- kon [1]: 254000 M⁻¹ s⁻¹
- t1/2 [1]: 8 min

B9: H2M1233N (antibody, mouse IgG2, V domains shown)
VH: QVVLVESGGGVVQPGRSLRLSCAASGFTFSSYGMHWVRQAPGKGLEWVAVIWYDGSNKYYVDSVKGRFTISRDNSNNTIYLQMNSLRAEDTAVYYCARSLIPVAGTDPIFGYWGQGTLVTVSS
VL: DIQMTQSPSTLSASVGDRVTITCRASQSVSSWLAWYQQKPGKAPKLLIFKASGLESGVPFRFSGSGSGTEFTLTISSLQPDDFATYYCQQYNTYSPTFGQGTKVEIK
notes: chimeric, human variable domains with mouse IgG2 Fc (prefix H2M)
- Kd [1]: 0.544 nM
- koff [1]: 0.000166 s⁻¹
- kon [1]: 305000 M⁻¹ s⁻¹
- t1/2 [1]: 70 min

B10: H2M1242N (antibody, mouse IgG2, V domains shown)
VH: EVQLVESGGGLVRPGGSLRLSCAASGFTFTSYAMNWVRQAPGKGLEWVSSISSYSSYIYIADSVKGRFTLSRDNAKNSLYLQMHSLRPEDTAVYFCAREGYSAYSYFDFWGRGTLVTVSS
VL: DIQMTQSPSTLSASVGDRVTITCRASQSVISWLAWYQQKPGKAPKLLIHRASSLESGVPSRFSGSGSGTEFTLTISGLQPDDFATYYCQQYNTYFPTFGQGTKVEVK
notes: as for B9
- Kd [1]: 0.449 nM
- koff [1]: 0.000122 s⁻¹
- kon [1]: 272000 M⁻¹ s⁻¹
- t1/2 [1]: 94 min

B11: H2M1237N (antibody, mouse IgG2, V domains shown)
VH: QVVLVESGGGVVQPGRSLRLSCAASGFTFSSYGMHWVRQAPGKGLEWVAVIWYDGSIKYYADSVKGRFTISRDNSNNTIYLQMNSLRAEDTAVYYCARALIPVAGTDPIFGYWGQGTLVTVSS
VL: DIQMTQSPSTLSASVGDRVTITCRASQSVSSWLAWYQQKPGKAPKLLIFKTSGLESGVPFRFSGSGSGTEFTLTISSLQPDDFATYYCQQYNTYSPTFGQGTKVEIK
notes: as for B9
- Kd [1]: 0.458 nM
- koff [1]: 0.000165 s⁻¹
- kon [1]: 359000 M⁻¹ s⁻¹
- t1/2 [1]: 70 min

B12: H4H2864P (antibody, human IgG4, V domains shown)
VH: EVQLVESGGGLAQPGGSLRLSCAASGFTFNNYAMTWVRQAPGKGLDWVSAISDSGRSTFSADSVKGRFTISRDNSKNTLYLQMDSLRAEDTALYYCAKHRNWNYPVFDYWGQGTLVTVSS
VL: DIQLTQSPSFLSASVGDRVTITCWASQGISSYLAWYQQKPGKAPKLLIYSASTLQSGVPSRFSGSGSGTEFTLTISSLQPEDFATYYCQQLNSYPFTFGPGTKVDIK
notes: human IgG4 Fc (prefix H4H)
- Kd [1]: 0.576 nM
- koff [1]: 0.000309 s⁻¹
- kon [1]: 537000 M⁻¹ s⁻¹
- t1/2 [1]: 37 min

B13: H4H1232N (antibody, human IgG4, V domains shown)
VH: EVQLVESGGGLVKPGGSLRLSCAASGFTFRNYNINWVRQAPGKGLEWVSLISGSSSYIYYADSVKGRFTVSRDNAKNSLYLQMNSLRAEDTAVYYCARRTLSYYVMDVWGQGTTVTVSS
VL: DIQVTQSPSPLSASVGDRVTITCRASQGISNYLAWYQQKPGRVPQLLIYAASTLQSGVPSRFSGSGSGTDFTLTISSLQPEDVATYYCQKYNSAPYTFGQGTKLEIK
notes: human IgG4 Fc (prefix H4H); also called REGN1908
- Kd [1]: 0.144 nM
- koff [1]: 0.000258 s⁻¹
- kon [1]: 1.79e+06 M⁻¹ s⁻¹
- t1/2 [1]: 45 min
- Kd [2]: 0.187 nM
- T1/2 [2]: 46 min
- koff [2]: 0.000251 s⁻¹
- kon [2]: 1.34e+06 M⁻¹ s⁻¹
- Kd [3]: 0.0316 nM
- T1/2 [3]: 159 min
- koff [3]: 7.25e-05 s⁻¹
- kon [3]: 2.3e+06 M⁻¹ s⁻¹

B14: H2M1236N (antibody, mouse IgG2, V domains shown)
VH: QVQLQESGPGLVKPSETLSLTCTVSGGSISNYYWSWIRQPPGKGLEWIGYIYYSGRTNYNPSLKSRVTISVDTSKNQFSLKLRSVTAADTAVYYCARHRITRTADSFDYWGQGTLVTVSS
VL: DIQMTQSPSSLSASVGDRVTITCQASQDITNYLNWYQQKPGKAPKLLIYDASNLETGVPSRFSGSGSGTDFTFTISSLQPEDVATFYCHQYGDLPYTFGQGTKLEIK
notes: as for B9
- Kd [1]: 0.558 nM
- koff [1]: 0.000232 s⁻¹
- kon [1]: 415000 M⁻¹ s⁻¹
- t1/2 [1]: 50 min

B15: H4H2797P (antibody, human IgG4, V domains shown)
VH: QVQLVESGGGVVLPGRSLRLSCAASGFTFSSYLMYWVRQAPGKGLEWVAVIWYDGSNKFYGDSVKGRFTISRDNSKNTLYLQMNSLRAEDTAVYYCARDNGNSGYEDSWNAFDIWGQGTMVTVSS
VL: DIQMTQSPSSLSASVGDRVTITCRASQDIYNYLAWFQQKPGKAPKSLIYAASSLQTGVPSQFSGSGSGTDFTLTISSLQPEDFATYYCQQYNNYPFTFGPGTKVDIK
notes: human IgG4 Fc (prefix H4H)
- Kd [1]: 4.69 nM
- koff [1]: 0.00205 s⁻¹
- kon [1]: 437000 M⁻¹ s⁻¹
- t1/2 [1]: 6 min

B16: H4H2645P (antibody, human IgG4, V domains shown)
VH: EVQLVESGGGLVQPGGSLRLSCAASGFTFSTYAMHWVRQAPGKGLEWVSSISGRGRNSDHADSVKGRFTISRDNSKNTLYLQMNSLRAEDTAVYYCARTEYFHHWGQGTLVTVSS
VL: DIQMTQSPSSLSASVGDRITITCRASQDINNYLAWFQQKPGKAPKSLIYGASSLQSGVPSKFSGSGSGTDFTLTISSLQPEDFATYYCQQYSSYPFTFGPGTKVDIK
notes: human IgG4 Fc (prefix H4H)
- Kd [1]: 0.368 nM
- koff [1]: 0.000179 s⁻¹
- kon [1]: 487000 M⁻¹ s⁻¹
- t1/2 [1]: 65 min

B17: H4H2597B (antibody, human IgG4, V domains shown)
VH: EVQLVESGGGLVQPGGSLRLSCAVSGFTFSNYAMNWVRQAPGKGLEWVSVISDSGRSTYYADSVKGRFTISRDNSKNTLYLQMNSLRAEDTAVYFCAKRYNWNLHYFDYWGQGTTVTVSS
VL: EIVLTQSPDFQSVTPKEKVTITCRASQSIGGSLHWYQQKPDQSPKLLIKYASQSFSGVPSRFSGSGSGTDFTLTINSLEAEDAATYYCLQSSSLRTFGQGTKVEIKR
notes: human IgG4 Fc (prefix H4H)
- Kd [1]: 0.501 nM
- koff [1]: 0.000558 s⁻¹
- kon [1]: 1.12e+06 M⁻¹ s⁻¹
- t1/2 [1]: 21 min

B18: H4H2606B (antibody, human IgG4, V domains shown)
VH: EVQLVESGGGLVKPGGSLRLSCAASGFTFSDYYMNWIRQAPGKGLEWVSYISSSGNSIYYADSVKGRFTISRDNAKNSLFLQMSSLRAEDTAVYYCARDGRYNDRRRGYYWGQGTLVTVSS
VL: EIVMTQSPDFQSVTPKEKVTITCRASQSIGSSLHWYQQKPDQSPKLLIKYASQSFSGVPSRFSGSGSGTDFTLTINSLEAEDAATYYCLQSSSLRTFGQGTKVEIKR
notes: human IgG4 Fc (prefix H4H)
- Kd [1]: 0.388 nM
- koff [1]: 0.000486 s⁻¹
- kon [1]: 1.26e+06 M⁻¹ s⁻¹
- t1/2 [1]: 24 min
